The supplement of paper PMC12667976
± gives the standard error.

B1: library; numbered along this chain (parent)
chain: MATDAALRRLLRLHRTEIAVAVDSAFPLLHALADHDVVPEDKFQETLHLKEKEGCPQAFHALLSWLLTQDSTAILDFWRVLFKDYNLERYGRLQPILDSFPKDVDLSQPRKGRKPPAVPKALVPPPRLPTKRKASEEARAAAPAALTPRGTASPGSQLKAKPPKKPESSAEQQRLPLGNGIQTMSASVQRAVAMSSGDVPGARGAVEGILIQQVFESGGSKKCIQVGGEFYTPSKFEDSGSGKNKARSSSGPKPLVRAKGAQGAAPGGGEARLGQQGSVPAPLALPSDPQLHQKNEDECAVCRDGGELICCDGCPRAFHLACLSPPLREIPSGTWRCSSCLQATVQEVQPRAEEPRPQEPPVETPLPPGLRSAGEEVRGPPGEPLAGMDTTLVYKHLPAPPSAAPLPGLDSSALHPLLCVGPEGQQNLAPGARCGVCGDGTDVLRCTHCAAAFHWRCHFPAGTSRPGTGLRCRSCSGDVTPAPVEGVLAPSPARLAPGPAKDDTASHEPALHRDDLESLLSEHTFDGILQWAIQSMARPAAPFPS

Variants of: B1
Experiment: AIRE transcriptional activation functional score (insulin promoter-GFP; nonsense median 0, synonymous median 1) (normalised score); higher = higher AIRE activity (more reporter activation)
Conditions: with insulin promoter-GFP reporter in HEK293
Method: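 Deep mutational scan of full-length human AIRE (codon-optimized cDNA, DT-POPCode NNN libraries over three regions) integrated at a Bxb1 landing pad in HEK293 cells carrying an insulin core promoter-GFP reporter at a Flp-In site. Cells were sorted for the top 10% GFP about 14 days after transfection. Variant frequency log-ratios (select vs non-select, TileSeq) were rescaled so that the nonsense median is 0 and the synonymous median is 1, then averaged over biological replicates.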

Row | Variant | AIRE transcriptional activation functional score
1 | G263L | 0.99 ± 0.34
2 | T183Q | 0.469 ± 0.075
3 | E383F | 1.58 ± 0.17
4 | G469D | 0.77 ± 0.46
5 | V118L | 0.953 ± 0.44
6 | V118E | 1.08 ± 0.27
7 | C311L | 0.839 ± 0.16
8 | A271Y | 0.83 ± 0.071
9 | G486V | 1.45 ± 0.5
10 | G486E | 0.566 ± 0.18
11 | G228Q | -1.12 ± 0.25
12 | A5Y | 0.397 ± 0.37
13 | W455F | 1.3 ± 0.1
14 | H60A | -0.135 ± 0.21
15 | E207P | 0.476 ± 0.2
16 | G219T | 1.01 ± 0.28
17 | P544H | 0.559 ± 0.22
18 | M388Q | 0.232 ± 0.12
19 | M388S | 0.824 ± 0.24
20 | D36T | -0.367 ± 0.13
21 | D36R | 0.583 ± 0.84
22 | D297H | 0.894 ± 0.14
23 | S474D | 1.33 ± 0.69
24 | S474L | 0.185 ± 0.081

Row | Variant | AIRE transcriptional activation functional score
25 | R203F | 0.572 ± 0.21
26 | A258H | 1.05 ± 0.11
27 | A413S | 0.965 ± 0.2
28 | A413M | 1.02 ± 0.11
29 | T16W | -0.366 ± 0.048
30 | G227F | -0.195 ± 0.43
31 | L323T | 1.35 ± 0.22
32 | L66E | -0.037 ± 0.99
33 | E508W | 0.888 ± 0.048
34 | R110Q | 0.31 ± 0.32
35 | R471V | 0.217 ± 0.32
36 | P148S | 1.19 ± 0.36
37 | P148D | 0.772 ± 0.85
38 | E171C | 1.96 ± 0.16
39 | E171S | 1.96 ± 0.47
40 | E171V | 1.65 ± 0.49
41 | A58M | -0.0857 ± 0.12
42 | A58C | -0.141 ± 0.25
43 | S156N | 1.39 ± 0.5
44 | Q212W | -0.0246 ± 0.17
45 | A142Y | 1.14 ± 0.12
46 | D41K | -1.32 ± 0.19
47 | L308S | 1.12 ± 0.28
48 | V22G | -0.0564 ± 0.39

Row | Variant | AIRE transcriptional activation functional score
49 | E375G | 0.999 ± 0.19
50 | E375V | 1.47 ± 0.34
51 | F459E | 0.803 ± 0.1
52 | E40Y | -0.301 ± 0.13
53 | G431I | 1.32 ± 0.11
54 | G431W | 1.29 ± 0.027
55 | G431C | 0.854 ± 0.15
56 | G218M | 1.01 ± 0.069
57 | I209P | 0.35 ± 0.05
58 | I209C | -0.0153 ± 0.21
59 | A117M | 0.838 ± 0.066
60 | A117Q | 1.44 ± 1
61 | A170L | 0.356 ± 0.53
62 | A170S | 0.78 ± 0.85
63 | A170E | 0.67 ± 0.35
64 | C299P | 0.634 ± 0.28
65 | T504F | 0.918 ± 0.081
66 | T504E | 0.961 ± 0.32
67 | D238G | 1 ± 0.29
68 | V362Q | 1.16 ± 0.28
69 | D304T | 1.15 ± 0.11
70 | L418Q | 1.28 ± 0.14
71 | P361D | 1.15 ± 0.28
72 | Q182A | 1.52 ± 0.54

Row | Variant | AIRE transcriptional activation functional score
73 | Q182L | 0.0585 ± 0.2
74 | Q182H | 1.91 ± 0.22
75 | K235G | 1.17 ± 0.43
76 | H454F | 0.117 ± 0.17
77 | S169L | 1.7 ± 0.48
78 | P326K | 0.94 ± 0.23
79 | L516W | 0.496 ± 0.029
80 | C446F | 0.403 ± 0.22
81 | C446E | -1.3 ± 0.16
82 | L341C | 1.24 ± 0.16
83 | L397K | 0.921 ± 0.032
84 | L397G | 0.775 ± 0.23
85 | S24C | 0.658 ± 0.088
86 | S24I | 0.123 ± 0.15
87 | G251R | 0.585 ± 0.39
88 | G268C | 1.21 ± 0.14
89 | G268A | 0.981 ± 0.18
90 | D4H | -0.661 ± 0.68
91 | D34C | -0.617 ± 0.33
92 | S402T | 0.974 ± 0.18
93 | Q358E | 1.19 ± 0.069
94 | Q358I | 1.1 ± 0.07
95 | S187D | 0.711 ± 0.14
96 | S464V | 0.722 ± 0.23

Row | Variant | AIRE transcriptional activation functional score
97 | S464P | 1.21 ± 0.22
98 | P116F | 1.18 ± 0.075
99 | P116H | 1.15 ± 0.41
100 | Q534A | 1.7 ± 0.083
101 | R139I | 1 ± 0.39
102 | P460A | 1.14 ± 0.2
103 | P460I | 1.01 ± 0.32
104 | S107W | 1.49 ± 0.037
105 | E485D | 0.981 ± 0.16
106 | E522Q | 1.03 ± 0.37
107 | Q94D | 0.228 ± 0.32
108 | R113C | 1.3 ± 0.1
109 | R113Y | 0.831 ± 0.23
110 | P539A | 0.371 ± 0.1
111 | G204T | 1 ± 0.53
112 | D478N | 0.709 ± 0.056
113 | S250W | 0.939 ± 0.071
114 | S250D | 0.427 ± 0.25
115 | P129F | 0.395 ± 0.1
116 | A281S | 0.99 ± 0.19
117 | F215H | 0.814 ± 0.06
118 | F215V | 0.289 ± 0.41
119 | A193E | 0.394 ± 0.18
120 | P466Q | 1.02 ± 0.13

Row | Variant | AIRE transcriptional activation functional score
121 | I224M | 1.07 ± 0.12
122 | G421Y | -0.246 ± 0.36
123 | S249Y | 0.973 ± 0.036
124 | D389N | 1.22 ± 0.048
125 | D389S | 1.24 ± 0.1
126 | L210Q | 0.0497 ± 0.33
127 | C314Q | 0.418 ± 0.13
128 | T46K | -3.42 ± 0.23
129 | L444N | 0.882 ± 0.43
130 | L444A | 0.718 ± 0.21
131 | K222D | 0.771 ± 0.13
132 | L417W | 1.3 ± 0.069
133 | L417D | 1.12 ± 0.14
134 | R356Q | 0.912 ± 0.12
135 | F59K | 0.387 ± 0.09
136 | T480C | 1.12 ± 0.052
137 | A429N | 1.09 ± 0.094
138 | K131C | -0.0234 ± 0.18
139 | K131I | -0.103 ± 0.13
140 | S278F | 1 ± 0.2
141 | G408A | 0.914 ± 0.2
142 | D103G | 1.32 ± 0.3
143 | D103S | 1.85 ± 0.66
144 | T447I | 1.4 ± 0.15

Row | Variant | AIRE transcriptional activation functional score
145 | T447D | 0.924 ± 0.24
146 | R513N | 0.0982 ± 0.068
147 | H523L | 0.222 ± 0.077
148 | A261V | 1.13 ± 0.093
149 | R247I | 0.937 ± 0.15
150 | Q108M | 2.4 ± 0.11
151 | S241V | 0.868 ± 0.2
152 | S241Q | 0.992 ± 0.3
153 | V348Q | 0.65 ± 0.4
154 | T441L | 1.13 ± 0.093
155 | K50M | 0.465 ± 0.05
156 | T151R | 0.807 ± 0.43
157 | L406R | 0.985 ± 0.22
158 | D312C | 1.09 ± 0.21
159 | D312Y | 0.942 ± 0.18
160 | L495F | 1.18 ± 0.16
161 | L495H | 1.23 ± 0.049
162 | K133R | 1.43 ± 0.42
163 | F525G | 0.0436 ± 0.1
164 | L67C | -0.405 ± 0.18
165 | A432H | 0.437 ± 0.44
166 | A140P | 1.56 ± 0.47
167 | A134P | -0.0505 ± 0.32
